Experimental data from FireProtDB (doi:10.1006/jmbi.1998.1906).
Several values for one entry are separate records, joined by “and”; a condition that tells them apart may be missing. Equal entries are not always repeated.

B1: Lysozyme C, P61626 (parent)
chain: MKALIVLGLVLLSVTVQGKVFERCELARTLKRLGMDGYRGISLANWMCLAKWESGYNTRATNYNAGDRSTDYGIFQINSRYWCNDGKTPGAVNACHLSCSALLQDNIADAVACAKRVVRDPQGIRAWVAWRNRCQNRDVRQYVQGCGV

Variants of: B1
Details: Homo sapiens; pH 2.5; Thermal; DSC; glycine 0.05 M; reversible: yes; structure 1LZ1; whole UniProt chain shown

Variant | Tm | unfolding enthalpy (calorimetric) | unfolding enthalpy (van 't Hoff)
MKALIVLGLVLLSVTVQGKVFERCELARTLKRLGMDGYRGISLANWMCLAKWESGYNTRATNYNAGDRSTDYGIFQINSRYWCNDGKTPGAVNACHLSCSALLQDNIADAAACAKRVVRDPQGIRAWVAWRNRCQNRDVRQYVQGCGV [V111A] | 41.2 °C | 64.1 kcal/mol | 71.1 kcal/mol

Same assay, conditions: Homo sapiens; pH 2.7; 49.2 °C; Thermal; DSC; glycine 0.05 M; reversible: yes; structure 1LZ1; whole UniProt chain shown

Variant | ddG of mutation (higher = less stable) | heat capacity change of unfolding
MKALIVLGLVLLSVTVQGKVFERCELARTLKRLGMDGYRGISLANWMCLAKWESGYNTRATNYNAGDRSTDYGIFQINSRYWCNDGKTPGAVNACHLSCSALLQDNIADAAACAKRVVRDPQGIRAWVAWRNRCQNRDVRQYVQGCGV [V111A] | 1 kcal/mol | 1.53 kcal/mol/K
MKALIVLGLVLLSVTVQGKVFERCELARTLKRLGMDGYRGISLANWMCLAKWESGYNTRATNYNAGDRSTDYGIFQINSRYWCNDGKTPGAVNACHLSCSALLQDNVADAVACAKRVVRDPQGIRAWVAWRNRCQNRDVRQYVQGCGV [I107V] | 0.35 kcal/mol | 1.84 kcal/mol/K
MKALIVLGLVLLSVTVQGKVFERCELARTLKRLGMDGYRGISLANWMCLAKWESGYNTRATNYNAGDRSTDYGIFQINSRYWCNDGKTPGAANACHLSCSALLQDNIADAVACAKRVVRDPQGIRAWVAWRNRCQNRDVRQYVQGCGV [V92A] | 0.43 kcal/mol | 1.53 kcal/mol/K

Same assay, conditions: Homo sapiens; pH 2.7; Thermal; DSC; glycine 0.05 M; reversible: yes; structure 1LZ1; whole UniProt chain shown

Variant | Tm | change of melting temperature, mutant - wild type (higher = more stable) | heat capacity change of unfolding | unfolding enthalpy (calorimetric) | unfolding enthalpy (van 't Hoff)
MKALIVLGLVLLSVTVQGKVFERCELARTLKRLGMDGYRGISLANWMCLAKWESGYNTRATNYNAGDRSTDYGIFQINSRYWCNDGKTPGAVNACHLSCSALLQDNIADAAACAKRVVRDPQGIRAWVAWRNRCQNRDVRQYVQGCGV [V111A] | 44.8 °C and 45.2 °C | -4.4 °C and -4 °C | 1.53 kcal/mol/K | 76.3 kcal/mol and 71.1 kcal/mol | 77.3 kcal/mol
MKALIVLGLVLLSVTVQGKVFERCELARTLKRLGMDGYRGISLANWMCLAKWESGYNTRATNYNAGDRSTDYGIFQINSRYWCNDGKTPGAVNACHLSCSALLQDNVADAVACAKRVVRDPQGIRAWVAWRNRCQNRDVRQYVQGCGV [I107V] | 46.5 °C | -2.7 °C | 1.84 kcal/mol/K | 78.5 kcal/mol | 
MKALIVLGLVLLSVTVQGKVFERCELARTLKRLGMDGYRGISLANWMCLAKWESGYNTRATNYNAGDRSTDYGIFQINSRYWCNDGKTPGAANACHLSCSALLQDNIADAVACAKRVVRDPQGIRAWVAWRNRCQNRDVRQYVQGCGV [V92A] | 47.3 °C | -1.9 °C | 1.53 kcal/mol/K | 73.7 kcal/mol | 

Same assay, conditions: Homo sapiens; pH 3.02; Thermal; DSC; glycine 0.05 M; reversible: yes; structure 1LZ1; whole UniProt chain shown

Variant | Tm | unfolding enthalpy (calorimetric) | unfolding enthalpy (van 't Hoff)
MKALIVLGLVLLSVTVQGKVFERCELARTLKRLGMDGYRGISLANWMCLAKWESGYNTRATNYNAGDRSTDYGIFQINSRYWCNDGKTPGAVNACHLSCSALLQDNIADAAACAKRVVRDPQGIRAWVAWRNRCQNRDVRQYVQGCGV [V111A] | 50.1 °C | 77.5 kcal/mol | 83 kcal/mol

Same assay, conditions: Homo sapiens; pH 3.16; Thermal; DSC; glycine 0.05 M; reversible: yes; structure 1LZ1; whole UniProt chain shown

Variant | Tm | unfolding enthalpy (calorimetric) | unfolding enthalpy (van 't Hoff)
MKALIVLGLVLLSVTVQGKVFERCELARTLKRLGMDGYRGISLANWMCLAKWESGYNTRATNYNAGDRSTDYGIFQINSRYWCNDGKTPGAVNACHLSCSALLQDNIADAAACAKRVVRDPQGIRAWVAWRNRCQNRDVRQYVQGCGV [V111A] | 52.5 °C | 81.8 kcal/mol | 86.4 kcal/mol
MKALIVLGLVLLSVTVQGKVFERCELARTLKRLGMDGYRGISLANWMCLAKWESGYNTRATNYNAGDRSTDYGIFQINSRYWCNDGKTPGAANACHLSCSALLQDNIADAVACAKRVVRDPQGIRAWVAWRNRCQNRDVRQYVQGCGV [V92A] | 54.8 °C | 82.5 kcal/mol | 86.4 kcal/mol

Same assay, conditions: Homo sapiens; pH 2.49; Thermal; DSC; glycine 0.05 M; reversible: yes; structure 1LZ1; whole UniProt chain shown

Variant | Tm | unfolding enthalpy (calorimetric) | unfolding enthalpy (van 't Hoff)
MKALIVLGLVLLSVTVQGKVFERCELARTLKRLGMDGYRGISLANWMCLAKWESGYNTRATNYNAGDRSTDYGIFQINSRYWCNDGKTPGAVNACHLSCSALLQDNVADAVACAKRVVRDPQGIRAWVAWRNRCQNRDVRQYVQGCGV [I107V] | 42.5 °C | 66 kcal/mol | 72 kcal/mol

Same assay, conditions: Homo sapiens; pH 2.66; Thermal; DSC; glycine 0.05 M; reversible: yes; structure 1LZ1; whole UniProt chain shown

Variant | Tm | unfolding enthalpy (calorimetric) | unfolding enthalpy (van 't Hoff)
MKALIVLGLVLLSVTVQGKVFERCELARTLKRLGMDGYRGISLANWMCLAKWESGYNTRATNYNAGDRSTDYGIFQINSRYWCNDGKTPGAVNACHLSCSALLQDNVADAVACAKRVVRDPQGIRAWVAWRNRCQNRDVRQYVQGCGV [I107V] | 45.5 °C | 71.8 kcal/mol | 76.6 kcal/mol

Same assay, conditions: Homo sapiens; pH 2.78; Thermal; DSC; glycine 0.05 M; reversible: yes; structure 1LZ1; whole UniProt chain shown

Variant | Tm | unfolding enthalpy (calorimetric) | unfolding enthalpy (van 't Hoff)
MKALIVLGLVLLSVTVQGKVFERCELARTLKRLGMDGYRGISLANWMCLAKWESGYNTRATNYNAGDRSTDYGIFQINSRYWCNDGKTPGAVNACHLSCSALLQDNVADAVACAKRVVRDPQGIRAWVAWRNRCQNRDVRQYVQGCGV [I107V] | 48.4 °C | 77.3 kcal/mol | 82.3 kcal/mol

Same assay, conditions: Homo sapiens; pH 3.1; Thermal; DSC; glycine 0.05 M; reversible: yes; structure 1LZ1; whole UniProt chain shown

Variant | Tm | unfolding enthalpy (calorimetric) | unfolding enthalpy (van 't Hoff)
MKALIVLGLVLLSVTVQGKVFERCELARTLKRLGMDGYRGISLANWMCLAKWESGYNTRATNYNAGDRSTDYGIFQINSRYWCNDGKTPGAVNACHLSCSALLQDNVADAVACAKRVVRDPQGIRAWVAWRNRCQNRDVRQYVQGCGV [I107V] | 53.8 °C | 87.3 kcal/mol | 88.3 kcal/mol

Same assay, conditions: Homo sapiens; pH 2.51; Thermal; DSC; glycine 0.05 M; reversible: yes; structure 1LZ1; whole UniProt chain shown

Variant | Tm | unfolding enthalpy (calorimetric) | unfolding enthalpy (van 't Hoff)
MKALIVLGLVLLSVTVQGKVFERCELARTLKRLGMDGYRGISLANWMCLAKWESGYNTRATNYNAGDRSTDYGIFQINSRYWCNDGKTPGAANACHLSCSALLQDNIADAVACAKRVVRDPQGIRAWVAWRNRCQNRDVRQYVQGCGV [V92A] | 43.9 °C | 65.6 kcal/mol | 69.9 kcal/mol

Same assay, conditions: Homo sapiens; pH 2.69; Thermal; DSC; glycine 0.05 M; reversible: yes; structure 1LZ1; whole UniProt chain shown

Variant | Tm | unfolding enthalpy (calorimetric) | unfolding enthalpy (van 't Hoff)
MKALIVLGLVLLSVTVQGKVFERCELARTLKRLGMDGYRGISLANWMCLAKWESGYNTRATNYNAGDRSTDYGIFQINSRYWCNDGKTPGAANACHLSCSALLQDNIADAVACAKRVVRDPQGIRAWVAWRNRCQNRDVRQYVQGCGV [V92A] | 47.5 °C | 71.5 kcal/mol | 75.6 kcal/mol

Same assay, conditions: Homo sapiens; pH 2.85; Thermal; DSC; glycine 0.05 M; reversible: yes; structure 1LZ1; whole UniProt chain shown

Variant | Tm | unfolding enthalpy (calorimetric) | unfolding enthalpy (van 't Hoff)
MKALIVLGLVLLSVTVQGKVFERCELARTLKRLGMDGYRGISLANWMCLAKWESGYNTRATNYNAGDRSTDYGIFQINSRYWCNDGKTPGAANACHLSCSALLQDNIADAVACAKRVVRDPQGIRAWVAWRNRCQNRDVRQYVQGCGV [V92A] | 50.1 °C | 74.4 kcal/mol | 80.9 kcal/mol

Same assay, conditions: Homo sapiens; pH 3.03; Thermal; DSC; glycine 0.05 M; reversible: yes; structure 1LZ1; whole UniProt chain shown

Variant | Tm | unfolding enthalpy (calorimetric) | unfolding enthalpy (van 't Hoff)
MKALIVLGLVLLSVTVQGKVFERCELARTLKRLGMDGYRGISLANWMCLAKWESGYNTRATNYNAGDRSTDYGIFQINSRYWCNDGKTPGAANACHLSCSALLQDNIADAVACAKRVVRDPQGIRAWVAWRNRCQNRDVRQYVQGCGV [V92A] | 52.8 °C | 79.2 kcal/mol | 86.4 kcal/mol
